Data set [1] in a line: Serum stability in mouse serum at 37° C. The format is in vitro ADME. Particulars: mouse serum, 37° C., mono-exponential fit. As for the experimental part: (§1) Serum stability measurements were done by mixing 0.5 μl dilute Luciferase with either 20 μl mouse serum or 50 μl rat serum (Equitech-Bio, Kerrville, Tex.) placing the sample in a 37° C. incubator, and removing aliquots for activity testing. To calculate serum half-lives, mono-exponential decay curves were fit to the serum stability data using a Nelder/Mead Simplex non-linear least squares minimization algorithm provided by the Octave numerical programming language. Emission spectra at ambient temperature were measured using a Triax 320 (Horiba Jobin Yvon, Edison, N.J.), which incorporates an optical grating device with a liquid N2 cooled CCD detector.

Data set [2] is described as follows: Bioluminescence emission spectra. It counts as physicochemical. Particulars: emission spectrum with native coelenterazine. As for the experimental part: as §1
Data set [3] can be described thus: Serum stability in rat serum at 37° C. It counts as in vitro ADME. The note with it: mono-exponential fit. The procedure:
as §1

Data set [4] is described as follows: Quantum yield measurements. It counts as biochemical. Particulars: for Quantum Yield (%) bc: benzyl-coelenterazine; for Quantum Yield (%) bdc: bisdeoxycoelenterazine; for Quantum Yield (%) cp: coelenterazine-cp; for Quantum Yield (%) n: coelenterazine-n; for Quantum Yield (%) native: native coelenterazine. As for the experimental part:
For quantum yield measurements, separate 1 μl drops of protein (about 2 pm) and substrate (0.2 pm) were placed in a tube, 100 μl of 100 mM sodium phosphate buffer (pH 7) was injected by the luminometer to mix, and the total light output was integrated (generally 5-10 min). For coelenterazine-n, the protein amount was increased 10 fold and the acquisition time lengthened to insure the reaction approached completion.

A short description of data set [5]: Luciferase activity of purified RLuc mutants (light output integrated over 10 s, luminometer). The format is biochemical. Particulars: relative to native enzyme; for Activity (relative to RLuc) bc: benzyl-coelenterazine; for Activity (relative to RLuc) bdc: bisdeoxycoelenterazine; for Activity (relative to RLuc) cp: coelenterazine-cp; for Activity (relative to RLuc) n: coelenterazine-n; for Activity (relative to RLuc) native: native coelenterazine. The text has this: Luminometer Calibration: Light measurements were made using a Turner 20/20 and later a Turner 20/20n luminometer (Turner Designs, Sunnyvale, Calif.). The luminometers were calibrated to absolute units (photons/s) using the luminol light standard performed in dimethyl sulfoxide (DMSO). No corrections were applied for the spectral sensitivity of the luminometer, as the spectral peak of luminol chemiluminescence in DMSO (486 nm) is close to the spectral peak of Renilla Luciferase bioluminescence (482 nm).
Characterization of Renilla Luciferase Mutants: Luciferase activity was measured by adding 1 μl of sample (diluted as necessary in EB containing 1% HSA) to 100 μl room temperature 100 mM sodium phosphate buffer (pH 7), manually adding 1 μl of 0.5 μg/μl coelenterazine or analog, manually mixing, and reading for 10 s in a luminometer. The time between the addition of the luciferin and the start of measurement was approximately 4 s.

B1: A55T/C124A: RLuc mutant A55T/C124A (protein)
chain: MASKVYDPEQRKRMITGPQWWARCKQMNVLDSFINYYDSEKHAENAVIFLHGNATSSYLWRHVVPHIEPVARCIIPDLIGMGKSGKSGNGSYRLLDHYKYLTAWFELLNLPKKIIFVGHDWGAALAFHYSYEHQDKIKAIVHAESVVDVIESWDEWPDIEEDIALIKSEEGEKMVLENNFFVETMLPSKIMRKLEPEEFAAYLEPFKEKGEVRRPTLSWPREIPLVKGGKPDVVQIVRNYNAYLRASDDLPKMFIESDPGFFSNAIVEGAKKFPNTEFVKVKGLHFSQEDAPDEMGKYIKSFVERVLKNEQ
Take B1: the “Serum τ1/2 (h) mouse” value in data set [1] is given as 30 h. In data set [2], the “Wavelength (nm) mean” value is given as 504 nm and the “Wavelength (nm) peak” value is reported as 486 nm. Moreover, the “Serum τ1/2 (h) rat” value in data set [3] came out at 29 h. In addition, in data set [4], the “Quantum Yield (%) bc” value is given as 3.9 ± 0.1%, the “Quantum Yield (%) bdc” value is listed as “(1.0 ± 0.9) × 10^−3%”, the “Quantum Yield (%) cp” value worked out at 4.5 ± 0.1% and the “Quantum Yield (%) n” value turned out to be 5.7 ± 0.1%. Further, the “Quantum Yield (%) native” value in data set [4] was 5.7 ± 0.2%. Also, in data set [5], the “Activity (relative to RLuc) bc” value was 1.2, the “Activity (relative to RLuc) bdc” value is 2.4, the “Activity (relative to RLuc) cp” value came out at 0.58 and the “Activity (relative to RLuc) n” value is on record as 1.4. Also, the “Activity (relative to RLuc) native” value in data set [5] was 1.7.

B2: C124A/S130A: RLuc mutant C124A/S130A (protein)
chain: MASKVYDPEQRKRMITGPQWWARCKQMNVLDSFINYYDSEKHAENAVIFLHGNAASSYLWRHVVPHIEPVARCIIPDLIGMGKSGKSGNGSYRLLDHYKYLTAWFELLNLPKKIIFVGHDWGAALAFHYAYEHQDKIKAIVHAESVVDVIESWDEWPDIEEDIALIKSEEGEKMVLENNFFVETMLPSKIMRKLEPEEFAAYLEPFKEKGEVRRPTLSWPREIPLVKGGKPDVVQIVRNYNAYLRASDDLPKMFIESDPGFFSNAIVEGAKKFPNTEFVKVKGLHFSQEDAPDEMGKYIKSFVERVLKNEQ
Take B2: the “Serum τ1/2 (h) mouse” value in data set [1] turned out to be 18 h. In data set [2], the “Wavelength (nm) mean” value is 498 nm and the “Wavelength (nm) peak” value was found to be 482 nm. Moreover, the “Serum τ1/2 (h) rat” value in data set [3] is reported as 14 h. In data set [4], the “Quantum Yield (%) bc” value is on record as 3.4 ± 0.04%, the “Quantum Yield (%) bdc” value is recorded as “(6.7 ± 0.3) × 10^−3%”, the “Quantum Yield (%) cp” value came out at 5.0 ± 0.1% and the “Quantum Yield (%) n” value is 5.9 ± 0.2%. For the same molecule, in data set [4], the “Quantum Yield (%) native” value was determined as 5.3 ± 0.1%. Further, in data set [5], the “Activity (relative to RLuc) bc” value is recorded as 1.4, the “Activity (relative to RLuc) bdc” value is recorded as 2.6, the “Activity (relative to RLuc) cp” value was determined as 1.7 and the “Activity (relative to RLuc) n” value was determined as 1.4. Further, the “Activity (relative to RLuc) native” value in data set [5] was determined as 1.7.

B3: C124A/K136R: RLuc mutant C124A/K136R (protein)
chain: MASKVYDPEQRKRMITGPQWWARCKQMNVLDSFINYYDSEKHAENAVIFLHGNAASSYLWRHVVPHIEPVARCIIPDLIGMGKSGKSGNGSYRLLDHYKYLTAWFELLNLPKKIIFVGHDWGAALAFHYSYEHQDRIKAIVHAESVVDVIESWDEWPDIEEDIALIKSEEGEKMVLENNFFVETMLPSKIMRKLEPEEFAAYLEPFKEKGEVRRPTLSWPREIPLVKGGKPDVVQIVRNYNAYLRASDDLPKMFIESDPGFFSNAIVEGAKKFPNTEFVKVKGLHFSQEDAPDEMGKYIKSFVERVLKNEQ
On to B3, for which the “Serum τ1/2 (h) mouse” value in data set [1] is 12 h. In data set [2], the “Wavelength (nm) mean” value came to 498 nm and the “Wavelength (nm) peak” value came to 482 nm. Moreover, the “Serum τ1/2 (h) rat” value in data set [3] is 11 h. Also, in data set [4], the “Quantum Yield (%) bc” value was 3.3 ± 0.1%, the “Quantum Yield (%) bdc” value is on record as “(7.1 ± 0.3) × 10^−3%”, the “Quantum Yield (%) cp” value is 5.1 ± 0.1% and the “Quantum Yield (%) n” value is reported as 6.0 ± 0.1%. For the same molecule, the “Quantum Yield (%) native” value in data set [4] worked out at 5.4 ± 0.1%. Moreover, in data set [5], the “Activity (relative to RLuc) bc” value stood at 2.1, the “Activity (relative to RLuc) bdc” value is 2.6, the “Activity (relative to RLuc) cp” value was 1.9 and the “Activity (relative to RLuc) n” value is 1.9. The “Activity (relative to RLuc) native” value in data set [5] is on record as 2.5 ± 0.3.

The values are drawn from patent US7842469B2, “Bioluminescence resonance energy transfer (BRET) systems and methods of use thereof” (Stanford University, priority 2005, dated 2010).
